Assay results from PMC9943875, “Agonist-controlled competition of RAR and VDR nuclear receptors for heterodimerization with RXR is manifested in their DNA binding” (The Journal of Biological Chemistry, 2023).

B1: EGFP-RAR (retinoic acid receptor alpha, N-terminally tagged with EGFP) (receptor)
chain: MASNSSSCPTPGGGHLNGYPVPPYAFFFPPMLGGLSPPGALTTLQHQLPVSGYSTPSPATIETQSSSSEEIVPSPPSPPPLPRIYKPCFVCQDKSSGYHYGVSACEGCKGFFRRSIQKNMVYTCHRDKNCIINKVTRNRCQYCRLQKCFEVGMSKESVRNDRNKKKKEVPKPECSESYTLTPEVGELIEKVRKAHQETFPALCQLGKYTTNNSSEQRVSLDIDLWDKFSELSTKCIIKTVEFAKQLPGFTTLTIADQITLLKAACLDILILRICTRYTPEQDTMTFSDGLTLNRTQMHNAGFGPLTDLVFAFANQLLPLEMDDAETGLLSAICLICGDRQDLEQPDRVDMLQEPLLEALKVYVRKRRPSRPHMFPKMLMKITDLRSISAKGAERVITLKMEIPGSMPPLIQEMLENSEGLDTLSGQPGGGGRDGGGLAPPPGSCSPSLSPSSNRSSPATHSP
B2: EGFP-VDR (vitamin D receptor, N-terminally tagged with EGFP) (receptor, UniProt P11473 1-427, looked up)
chain: MEAMAASTSLPDPGDFDRNVPRICGVCGDRATGFHFNAMTCEGCKGFFRRSMKRKALFTCPFNGDCRITKDNRRHCQACRLKRCVDIGMMKEFILTDEEVQRKREMILKRKEEEALKDSLRPKLSEEQQRIIAILLDAHHKTYDPTYSDFCQFRPPVRVNDGGGSHPSRPNSRHTPSFSGDSSSSCSDHCITSSDMMDSSSFSNLDLSEEDSDDPSVTLELSQLSMLPHLADLVSYSIQKVIGFAKMIPGFRDLTSEDQIVLLKSSAIEVIMLRSNESFTMDDMSWTCGNQDYKYRVSDVTKAGHSLELIEPLIKFQVGLKKLNLHEEEHVLLMAICIVSPDRPGVQDAALIEAIQDRLSNTLQTYIRCRHPPPGSHLLYAKMIQKLADLRSLNEEHSKQYRCLSFQPECSMKLTPLVLEVFGNEIS

Key:
[1] = molecular target: mCherry-RXR (retinoid X receptor alpha, N-terminally tagged with mCherry) (UniProt P19793)
[2] = molecular target: TagBFP-RXR (retinoid X receptor alpha tagged with TagBFP) (UniProt P19793)
[3] = molecular target: T1, mCherry-RXR (retinoid X receptor alpha, N-terminally tagged with mCherry) (UniProt P19793 1-462); test: cell-based or functional assay
T1 sequence (looked up): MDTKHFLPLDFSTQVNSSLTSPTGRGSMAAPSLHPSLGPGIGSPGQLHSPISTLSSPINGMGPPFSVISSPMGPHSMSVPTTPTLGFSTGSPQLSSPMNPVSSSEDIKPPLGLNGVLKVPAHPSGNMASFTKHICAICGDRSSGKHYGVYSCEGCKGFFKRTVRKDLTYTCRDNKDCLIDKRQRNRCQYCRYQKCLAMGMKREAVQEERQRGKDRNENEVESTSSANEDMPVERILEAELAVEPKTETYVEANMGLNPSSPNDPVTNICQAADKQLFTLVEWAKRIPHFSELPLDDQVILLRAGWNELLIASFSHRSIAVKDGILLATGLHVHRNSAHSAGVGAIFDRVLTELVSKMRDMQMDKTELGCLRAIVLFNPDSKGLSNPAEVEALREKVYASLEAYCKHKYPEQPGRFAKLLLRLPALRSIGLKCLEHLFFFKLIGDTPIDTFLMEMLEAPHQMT

Row | Binder | slow (DNA-bound) fraction ρ2 of EGFP-RAR by FCS in live HEK293 cells cotransfected with mCherry-RXR, no ligand (∼22% for EGFP-RAR alone) [1] | slow fraction ρ2 of EGFP-RAR by FCS in triple-transfected cells (EGFP-RAR, mCherry-VDR, TagBFP-RXR), no ligand, against ρ2 ∼ 0.38 in cells with RAR and RXR only [2] | slow (DNA-bound) fraction ρ2 of EGFP-VDR by FCS in live HEK293 cells, mCherry-RXR coexpressed and 100 nM calcitriol added together [3] [fold]
1 | B1 | 0.38 | – | –
2 | B2 | – | 0.32 | 2
